Test results published in publication PMC4007455.

Experiments:
[1] = molecular target: RNA polymerase II in isolated early elongation complexes (human (endogenous in HeLa)) (UniProt P24928)
[2] = molecular target: RNA polymerase II in isolated early elongation complexes (human (endogenous in HeLa)) (UniProt P24928); remark: listed apart in the source

Row | amount of Gdown1 CTD titrated onto EECs that completely blocks elongation stimulation by 0.1 pmol TFIIF, in vitro transcription, 7-min chase [1] | block of TFIIF (0.1 pmol)-dependent runoff by 1 pmol ΔLPDKG mutant, in vitro transcription on isolated EECs, 7-min chase (blocks TFIIF acting on Pol II) [2] | termination region as percent of total counts with TTF2 (0.04 pmol) and 1 pmol ΔLPDKG mutant (72% with TTF2 alone), in vitro transcription on isolated EECs (blocks TTF2 acting on Pol II) (% of the total counts) [2] | Substance
1 | 20 pmol |  |  | Gdown1 CTD(197–368) (from UniProt P0CAP2-1 197-368) (domain or fragment)
2 |  | 90% | 50 | Gdown1 ΔLPDKG deletion mutant (from UniProt P0CAP2-1 1-368) (natural protein)
